The assay deals with LOXL3 (UniProt P58215). Briefly: Co-IP of LOXL3 with LOXL3. Conditions: reference: wild type; sites S704.

We go through one substance from paper PMC10229567.

UniProt P58215, sequence (P58215 whole entry S704A): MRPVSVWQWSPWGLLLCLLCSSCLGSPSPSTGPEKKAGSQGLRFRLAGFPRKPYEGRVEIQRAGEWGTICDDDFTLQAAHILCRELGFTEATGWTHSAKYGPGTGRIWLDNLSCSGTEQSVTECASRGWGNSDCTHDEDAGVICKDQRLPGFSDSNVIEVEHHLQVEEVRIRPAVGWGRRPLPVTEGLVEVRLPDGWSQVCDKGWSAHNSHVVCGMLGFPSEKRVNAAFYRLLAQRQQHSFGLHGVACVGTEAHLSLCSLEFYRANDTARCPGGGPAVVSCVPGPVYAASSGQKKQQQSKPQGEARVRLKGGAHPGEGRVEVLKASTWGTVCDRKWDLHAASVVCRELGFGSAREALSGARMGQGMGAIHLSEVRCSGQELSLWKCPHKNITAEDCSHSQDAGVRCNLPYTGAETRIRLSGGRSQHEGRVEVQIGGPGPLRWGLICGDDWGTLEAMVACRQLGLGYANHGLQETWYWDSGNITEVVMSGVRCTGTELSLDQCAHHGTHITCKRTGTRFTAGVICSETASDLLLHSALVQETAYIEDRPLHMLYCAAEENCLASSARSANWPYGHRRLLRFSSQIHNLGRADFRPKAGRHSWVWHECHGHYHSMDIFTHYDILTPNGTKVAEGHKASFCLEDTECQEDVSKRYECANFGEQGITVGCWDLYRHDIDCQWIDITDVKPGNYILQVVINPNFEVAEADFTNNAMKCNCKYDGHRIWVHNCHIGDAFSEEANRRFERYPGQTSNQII

For the substance LOXL3 (from UniProt P58215) S704A, the “binding against the reference” value is given as “weaker”.
